This note sets out measurements from patent US20200199234A1 (published 2020).

Where a chain is given by its changes, count along the chain named.

Test [1] has as its target T1, N(A2B2)A-avi-His (human, biotinylated avi-tag).
T1 construct: also called biotinylated N(A2B2)A-avi-His
T1 chain: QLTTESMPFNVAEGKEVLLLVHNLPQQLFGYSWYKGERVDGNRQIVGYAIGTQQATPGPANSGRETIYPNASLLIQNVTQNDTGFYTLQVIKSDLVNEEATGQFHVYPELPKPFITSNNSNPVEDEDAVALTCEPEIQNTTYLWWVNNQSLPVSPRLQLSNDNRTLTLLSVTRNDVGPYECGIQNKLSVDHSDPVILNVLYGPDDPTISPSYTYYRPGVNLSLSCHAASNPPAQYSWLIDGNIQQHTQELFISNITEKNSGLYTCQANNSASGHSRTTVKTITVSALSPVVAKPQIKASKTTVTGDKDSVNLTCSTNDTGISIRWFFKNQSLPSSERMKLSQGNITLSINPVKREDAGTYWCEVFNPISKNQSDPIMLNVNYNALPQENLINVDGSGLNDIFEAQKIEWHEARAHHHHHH
The experiment in a line: SPR ProteOn, purified bispecific IgG.
Description: About 2000, 1000, 500, and 250 RU of biotinylated N(A2B2)A-avi-His were immobilized on 4 channels of a Streptavidin-coated NLC chip in vertical orientation. As a control for non-specific binding, 2000 RU of biotinylated NA(B2)A-avi-His protein was immobilized on channel 5. For the determination of the affinity (KD) of the purified bispecific constructs, injection direction was changed to horizontal orientation. […] Buffer (PBST) was injected along the sixth channel to provide an “in-line” blank for referencing. Regeneration was performed with 10 mM glycine pH 1.5 for 20s at 50 ul/min (vertical orientation).
(§1) Association rate constants (kon) and dissociation rate constants (koff) were calculated using a simple one-to-one Langmuir binding model in ProteOn Manager v3.1 software by simultaneously fitting the association and dissociation sensorgrams. The equilibrium dissociation constant (KD) was calculated as the ratio koff/kon.

Test [2] concerns the target T2, human CEA (CEACAM5) expressed on cells (MKN45; MV3 engineered to express human CEACAM5) (human, UniProt P06731 35-685).
T2 sequence: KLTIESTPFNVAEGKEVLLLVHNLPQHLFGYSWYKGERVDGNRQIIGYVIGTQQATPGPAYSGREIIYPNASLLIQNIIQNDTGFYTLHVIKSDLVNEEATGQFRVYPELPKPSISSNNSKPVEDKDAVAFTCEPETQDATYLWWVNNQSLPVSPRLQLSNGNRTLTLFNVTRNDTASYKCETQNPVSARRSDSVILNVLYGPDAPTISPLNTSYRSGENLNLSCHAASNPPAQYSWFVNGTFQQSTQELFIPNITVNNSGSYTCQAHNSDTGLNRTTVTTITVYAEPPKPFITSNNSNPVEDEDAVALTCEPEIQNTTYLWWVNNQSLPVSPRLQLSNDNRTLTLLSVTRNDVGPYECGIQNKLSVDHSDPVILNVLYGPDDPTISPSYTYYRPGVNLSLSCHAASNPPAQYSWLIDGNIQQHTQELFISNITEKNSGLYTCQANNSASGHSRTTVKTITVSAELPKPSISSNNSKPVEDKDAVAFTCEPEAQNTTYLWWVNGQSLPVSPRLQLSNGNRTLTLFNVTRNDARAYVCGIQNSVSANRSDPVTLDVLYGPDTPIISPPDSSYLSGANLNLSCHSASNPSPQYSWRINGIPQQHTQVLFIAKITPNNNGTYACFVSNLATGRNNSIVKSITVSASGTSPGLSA
The experiment in a line: flow cytometry on MV3 cells expressing CEA. On the technique in general: Flow cytometry measures light scatter and fluorescence of single cells or particles in a stream.

Test [3] deals with T3, human HER3 on T-47D cells (human, UniProt P21860 20-1342).
T3 construct: also called ErbB3
Put plainly: flow cytometry.

Test [4] deals with T1, N(A2B2)A-avi-His. The experiment in a line: SPR ProteOn, purified Fab.
Description: Affinity (KD) of purified Fab fragments was measured by surface plasmon resonance using a Proteon XPR36 machine using the same setup as described before.
About 2000, 1000, 500, and 250 RU of biotinylated N(A2B2)A-avi-His were immobilized on 4 channels of a Streptavidin-coated NLC chip in vertical orientation. As a control for non-specific binding, 2000 RU of biotinylated NA(B2)A-avi-His protein was immobilized on channel 5. For the determination of the affinity (KD) of the purified clones, injection direction was changed to horizontal orientation. Two-fold dilution series of purified Fab fragments (varying concentration ranges between 100 and 3 nM) were injected simultaneously at 100 μl/min along separate channels 1-5, with association times of 100s, and dissociation times of 1200s. Buffer (PBST) was injected along the sixth channel to provide an “in-line” blank for referencing. Regeneration was performed with 10 mM glycine pH 1.5 for 35s at 50 μl/min (vertical orientation).
as §1

B1: CEA(P006.038-combo1)-CD28(SA_Variant 15) bispecific 1+1 IgG (bispecific antibody)
heavy 1: EIVLTQSPATLSLSPGERATLSCRASSSVTYIHWYQQKPGQAPRSWIYATSNLASGIPARFSGSGSGTDFTLTISSLEPEDFAVYYCQHWSSVPPTFGQGTKLEIKSSASTKGPSVFPLAPSSKSTSGGTAALGCLVKDYFPEPVTVSWNSGALTSGVHTFPAVLQSSGLYSLSSVVTVPSSSLGTQTYICNVNHKPSNTKVDKKVEPKSCDKTHTCPPCPAPEAAGGPSVFLFPPKPKDTLMISRTPEVTCVVVDVSHEDPEVKFNWYVDGVEVHNAKTKPREEQYNSTYRVVSVLTVLHQDWLNGKEYKCKVSNKALGAPIEKTISKAKGQPREPQVCTLPPSRDELTKNQVSLSCAVKGFYPSDIAVEWESNGQPENNYKTTPPVLDSDGSFFLVSKLTVDKSRWQQGNVFSCSVMHEALHNHYTQKSLSLSP
light 1: EVQLLESGGGLVQPGGSLRLSCAASGFYFTDYAMNWVRQAPGKGLEWLGVISNKANAYTTEYSASVKGRFTISRDKSKNTLYLQMNSLRAEDTATYYCTRDRGIRFGFDYWGQGTTVTVSSASVAAPSVFIFPPSDEQLKSGTASVVCLLNNFYPREAKVQWKVDNALQSGNSQESVTEQDSKDSTYSLSSTLTLSKADYEKHKVYACEVTHQGLSSPVTKSFNRGEC
heavy 2: not shown
light 2: not shown
As a reminder, the koff is the first-order rate constant of dissociation. A high value points to fast dissociation. B1 showed a dissociation rate constant (koff) with N(A2B2)A-avi-His [1] of 7.99e-05 s⁻¹.

B2: Molecule 11R: CEA (P002.139)-CD28 (SA_Variant 15) 1+1 format (bispecific antibody)
heavy 1: B1 heavy 1 with R24H, V93K
light 1: B1 light 1 with I104L, G107Y
heavy 2: not shown
light 2: not shown
notes: also called P1AE8371
One may read the EC50 as the midpoint of the concentration-response curve. High values mean a less potent agent, low ones a more potent agent. With B2, in test [2], the EC50 is 4.1 nM.

B3: Molecule 14B: HER3(lumretuzumab)-CD28 (SA_Variant 15) 1+1 format (bispecific antibody, human IgG1, kappa, L234A L235A)
heavy 1: not shown
light 1: not shown
heavy 2: DIVMTQSPDSLAVSLGERATINCKSSQSVLNSGNQKNYLTWYQQKPGQPPKLLIYWASTRESGVPDRFSGSGSGTDFTLTISSLQAEDVAVYYCQSDYSYPYTFGQGTKLEIKSSASTKGPSVFPLAPSSKSTSGGTAALGCLVKDYFPEPVTVSWNSGALTSGVHTFPAVLQSSGLYSLSSVVTVPSSSLGTQTYICNVNHKPSNTKVDKKVEPKSCDKTHTCPPCPAPEAAGGPSVFLFPPKPKDTLMISRTPEVTCVVVDVSHEDPEVKFNWYVDGVEVHNAKTKPREEQYNSTYRVVSVLTVLHQDWLNGKEYKCKVSNKALGAPIEKTISKAKGQPREPQVCTLPPSRDELTKNQVSLSCAVKGFYPSDIAVEWESNGQPENNYKTTPPVLDSDGSFFLVSKLTVDKSRWQQGNVFSCSVMHEALHNHYTQKSLSLSP
light 2: QVQLVQSGAEVKKPGASVKVSCKASGYTFRSSYISWVRQAPGQGLEWMGWIYAGTGSPSYNQKLQGRVTMTTDTSTSTAYMELRSLRSDDTAVYYCARHRDYYSNSLTYWGQGTLVTVSSASVAAPSVFIFPPSDEQLKSGTASVVCLLNNFYPREAKVQWKVDNALQSGNSQESVTEQDSKDSTYSLSSTLTLSKADYEKHKVYACEVTHQGLSSPVTKSFNRGEC
notes: also called P1AF0151; HER3-CD28
B3: the binding result in test [3] is “binds”.

B4: P001.177 Fab fragment (Fab, V domains shown)
VH: EVQLLESGGGLVQPGGSLRLSCAASGFYFTDYYMNWVRQAPGKGLEWLGFISNKANAYTTEYSASVKGRFTISRDKSKNTLYLQMNSLRAEDTATYYCTRDRGLRFYFDYWGQGTTVTVSS
VL: EIVLTQSPATLSLSPGERATLSCRASSSVTYIHWYQQKPGQAPRSWIYATSNLASGIPARFSGSGSGTDFTLTISSLEPEDFAVYYCQHWSSKPPTFGQGTKLEIK
In the test with N(A2B2)A-avi-His [4], B4 showed an off-rate (koff) of 0.000785 s⁻¹.

B5: P005.102 Fab fragment (Fab, V domains shown)
VH: B4 VH with Y28T, S52G, L104I, Y107Q
VL: B4 VL with P94S
Molecule B5 gave a dissociation rate constant (koff) with N(A2B2)A-avi-His [4] of 0.000392 s⁻¹.
